Reference: patent US20240026407A1, “MODIFICATION OF SAPONINS” (GLAXOSMITHKLINE BIOLOGICALS SA, priority 2020, published 2024)

Legend:
Type in all cases: biochemical, Quillaja saponaria
[1] = Experiment 6-1: screening of rhamnosidases for derhamnosylation of saponins in treated bark extract (2%), QS-17 2296 to QS-18 2150 (PAR %); conditions: TBE 2%, pH 7.5, 30 degC, 18 h; TIC peak area ratio percent of rhamnosylated starting saponin to derhamnosylated product, LCMS/MS; negative controls 4.876, 5.225
[2] = Experiment 6-1: specificity of rhamnosidases towards other rhamnose residues (C3 saccharide rhamnose, C28 saccharide rhamnose); conditions: TBE 2%, pH 7.5, 30 degC, 18 h; LCMS/MS; negative controls 0.18, 0.17
[3] = Experiment 6-1: screening of rhamnosidases for derhamnosylation of saponins in treated bark extract (2%), desglucosyl-QS-17 2134 to QS-21 1988 (PAR %); conditions: TBE 2%, pH 7.5, 30 degC, 18 h; TIC peak area ratio percent, LCMS/MS; negative controls 2.719, 2.158
[4] = Experiment 6-1: screening of rhamnosidases for derhamnosylation of saponins in treated bark extract (2%), QS-17 2310 to QS-18 2164 (PAR %); conditions: TBE 2%, pH 7.5, 30 degC, 18 h; TIC peak area ratio percent, LCMS/MS; negative controls 3.061, 2.429

Molecule | QS-17 (PAR %) [1] | ratio PP/QS-21 [2] | Peak75 (PAR %) [3] | Peak57 (PAR %) [4]
997 (protein, Lachnoclostridium phytofermentans) MKSFIKELIEQKEGNYILPFFWQHGESEGKLREYMEAIHSCGIRAVCVEARPHPDYLGPGWWHDLDIIIDEAKKRDMKLWILDDAHFPTGYAAGKIAESEDKYCKQYISRKFIDVSGPTPEVEVNLAAMMMPIMLPSGLNLEMFGMSSEKKRYFTDDRILSIRAYQMDKDSSLIGEGIDLTTNIVNGKLIWDVPKGTWRINVLFITRNGEGRCDYINMVDKDSCRIQIDAVYEPHYEHYKEEFGKTIAGFFSDEPCLGNSIGYNFDESIGKKKTPLPWSSQLEKMLEEKLGKEYLPYYPALWTDMADEKVNARVRYAYMDCVTRLVEENFSRQIGQWCEERGVEYIGHIVEDNNQHSRLGSSQGHFFRSMMGQHMSGIDNIGDQVLPGGENHKREALLGADKDGEFYHYELGKLGSSLAHIDPKKQGRAMCEIFGAYGWRLGIRTMKYLMDHFLVRGINVYVPHAFSPKDFPDSDCPPHFYAGGEDPQFNYFKKLMHYTNRMCHLLNGGTHIAPAAVLYHGEAEWTGGCMFNQKVARELLESQIDFDILPSDVFADMSAYNATFDGFLQVNGESYDCFIVPYAEFITKEVAVFAGTASKKGFPVFFVQGLPESICNIDKKEEEKLLLDGMSECIVVPLEALSKTLKDNKLFEISSDNQFDGLRYYHYRKEQTELYMFSNESIGKEYNGWITVKSKGEVSLYDAMDNRIIPAEYRNTEDGTSIHIRLTPYQSVVALFEDLKEVEDQGNFEAKPGYRLDAAWRISSAEVSKYPEFQPVEVTTELKSMGRVLPDFSGYLRYESEFVYDRMPTGRELLNITDVYEGAEVWLNGHCLGMKICPPYQFPLGEALRAGENHIRIEVATTLDRKVKSLPQDMRSLMFYSKITEPTGIVGSVEIWN | 4.754% | 0.17 | 2.115% | 2.906%
1057 (protein, listed as Parabacteroides goldsteinii) MKVDITKIFTILFVIAFAGCLLQSCNSSINGLEQGFFNPPDSVRPGVYWYFMDGNLSKEAMTKDLESMKEAGIGHVVYLEVNVGVPRGSVDFLSDEWQEMFAHAVAECERLGIDITLGVGPGWTGSGGPWVEGAQSMMHLVSSSVNVSGKGKKTIALPKPSPKPHFFAEDNFTPESKKRWEEYYEDVAVLAFPAGASTFGTDYEAGSAYLRITGIEEKALYYRKPYSSVTQVKPYLTFGKDSFTVQTVDKDCIIDLTDHLEIDGTLTWEVPEGDWTIMRFGARNNGAVTRPAPHPGVGLETNKFDTTALNAHLDKFVTKLFNRVGFKKAQPQGGLQMLHMDSWEMGAQNWTTHFREEFTKRRGYDPQPFYPVYAGFIVQSREESERFLWDLRVTSQELIKEYHAGHIKSYGKRYGLGLSIEPYDMNPTADLELASVADMPMCEFWSVGYGYNTSFSAMEGTSVAHLLGQPVVPAESFTAYLDGWRQHPGSMKNQTDWALASGINRLMFHTFQHQPLNDRLRPGMTMGPYGVHWDRNQTWWPMADAYHRYISRCQLLLQQGRTVADILYLTPEGAPHVFRAPISALEGDLLDTDNLFNFRNETPLPDRKGYNFDACPPSLFYDAQVKDGKVVFPSGVSYRLLVLPCFETMTPELLEKIRDLVNGGATVVGLPPQKSPSLVNYPVCDEKVRVLVQELWGGYEIPETVEIRSIGKGKVIWSKELLEQQDNLYPTYEYTADILAKMDVHEDFESTGEIRYTHRTMKGYEIYFVSNRKDSPVTVNCKFRMTGHPELWNPMTGEIRPLAEYTVTGVHTTIPLLFDANEGYFIVFRDNTFQREIQTKKNFPDSRRVASLTAPWSVSFDPAWGGPEQVTFEKLTDWTQHPDSGIRYYSGTAIYRQTFDRPADNSKQQFLDLGKVKNLARVRLNGQDLGVVWTAPWRVEITKALKLKDNQLEIEVVNLWPNRLIGDEQLPDDGIRNGEWPEWLKDGGPRTSGRYTFTTYKHFTKESPLLESGLLGPVTIWGIDN | 4.670% | 0.15 | 2.498% | 3.213%
1038 (protein, listed as Formosa agariphila) MILHKSVFKSYIYVLTYFVFFSVMSCENSSVLQEAKHLTISEGFKNPLGFYDAKPTFSWELPVVEGVISQSAYQIVVASSPDLLPNNPDLWDSNKQSSSQSVWINYEGKPLVSRQKVFWQVKYWNQDDKASNWSPVQNFELGLLNNSDWKAKWIGLPTKEEGVLGSQDNIIHRPQYLRKVFELSNDVANARLYITAKGVFDVAINGEDVSDDVMPPGYTPYKKRIETITYDVTDLIESGQNTIGVEVAAGWHSGRLGWMKSYWSDTESPKILCQLEVTMKDGSKASIISDDTWKATTQGPIRISEIYDGETYDAHLEMPHWTTNSFDDKNWKAVQAFPVTSTIKLEPKRHTTVKSKIVLESKEIILKADAAIFDLQQNMVGVPLLKVPMKMGDTLKIRFAEMLSPDGTFYTDNYRSAQSTDYYIAAKEGTIEWMPKFTFHGFRYVELSGFDASKTPSKNWVKGVVQYSNFNENGSFTSSHEKLNQLQSNIVWGLRGNFFDIPTDCPQRDERMGWTGDAQVFGPTSMFNADVYKFWASWMQSVRESQYDNGGIPFVVPDVLHNGKVSSGWGDVCTIIPWKIYYRTGDVGILEENYDMMKKWVAHHQATSKDFISHMNSFADWLQPYPENGNNKGDTSHSLIGTAFFAHSAKLTAKTAEVLGKKEEQATYEALYKSVAKAFENAFFKNGKVKDVTATQTSYLLALAFDLLSEENKENAKQQLLEKISEADNHLRTGFLGTPLLSEVLDETGEIDLMYKLLFNETYPSWFYSINQGATTIWERWNSYSKAEGFNPMKMNSLNHYAYGAIGEWMYERITGIAPLQAGYKIISIAPIPKAPLTSASATLNTPYGEVASSWEIKNETLFLEVVVPPNTTAEIEIPTDNSESLKVDNENFTNGKNLKLIKNEKRKIKILAQPGTYEFQAKYSL | 4.725% | 0.18 | 2.512% | 2.913%
1045 (protein, listed as Acidobacterium capsulatum) MLVGGLATAATAQTNLQQLEKTFQNPPDNAKPMLRWWWFGPSVTKPEILREMQQIKAGGFGGFVIHYVYPLALDDPQTGFRNLPFLSPAMLSDVSYANRQAHALGLRAGTALASGWPYGGPMTAVTEAAAKIVQKESTVAPGAHSVALPSIGNGQKLLAVFAQDGSAGSQQKMLPLPAPVTLRMAIPTGTHIVDWYLMSRTGQQVKRAAVDANGFVLDHFSHHAVADHLKNVGDKLVAAFGSEPPDSVFSDSLEVFGADWTPDFLEEFRKKNGYSLLPYLPDLFMKHPDAQALAVRHDWGVTLTALIDENYLTQVNAWARAHHTHLRAQVYGPPAVSLSSNNLVDLPEGEGPQWRQFAYTRWATSAGHLYGRPIISSETFTWLHSPAFRATPLDVKAEADRFFLQGVNQIYCHGWPYSPPSAGEPGWRFYAAAVFDAHNPWWIVMPEVTQYLQRVSWIMRQGAPANRVAIFLPEDDAWAAFTPGQVALTGLLPRWITPQLTQAIENSGYDFDYIDAAAIQARGIHYSLLILPNVDRISPAALTAIQQYEKSGGKVIALGRIPAHAPGFLHYEQISAEVNRESHAFFGHPGARVRVVQAVSGLGDALHQMLTPAMTLSAAKPAVGFVRRKLDDADIYFLANTSNVSIHTVAHLRSRYTSGTWLDPMSGKAYAAQSRNGGWPLHLAPYGSTILVLHAKNVRLPVAAGHDSFNPSSTKAIADLSSDWNVSFPALHLQEPMATLASWTKNEKTLYYSGVAVYRRTLEVAQNDLDHAPLLLSFGQGTPVSPSAFHRQMGTRAWLNPPVHVAAVVYVNGRLAGTVWHPPYVLAVGGLLKPGANQIEVRVANTAINEMAGKSLPDYRLLWARYGRRFEPQDMKHLQPLPSGLLGKVELLEGESR | 4.741% | 0.17 | 2.442% | 2.865%
1032 (protein, Spirosoma linguale) MRYIFFLGLLAASLTAFAQTAPTNLRTDLLLHTDKVWSNGFLTNYTLDGADSAKFAGQLALIRSSRPSFSWVLSTAGGTSRQTAYRLILSTSRQKNQADAGDVWDSGKVMSSQSVGILLPASQKLDTNRIYFWKVKVWNERNLESDFSQPKAFRTAPRLTAYETPFYPLVKTEEAPRSQRTLAGQRIVYDFGKDAFGQAFLTVSSASESDTLIVHLGEAVTADGHVNEKPSGTLRYRQIRVPLQKGTHRYAIQFKPDKRNTGPKAILMPDYIGEVLPFRYVELAFNPATRIEQIVRQVVTYPFDDSATTFSSSDSTLNQIWDLCKHTIKATTFTGYYVDGDRERIPYEADALLNQLSHYATDAEYNMAKRSLNYLVFHATWPTEWSLQNVLIAWYDYLYSGDSRTVEALYPELKAKLLLPLARPDGLISTRTGLQTPEFKKSIHYDTFDGRPTIQDIVDWPQQGVLGLGKKEAGETDGFVFTDYNAVVNAFHYQGLVFMAQLASRLGKTDDAAFYANRAGLVRKAFQATFIHPKTGLVRDGEGTDHASLHANMMALAFGLVPEKLQSQVLAHIRSRGMACSVYGSQFLLDALYNANESAYGLALMTSTDERSWYNMLRTGSTMTTEAWDTRYKPNQDWNHAWGSAPANIIVRKLMGVEALTLAYETVQIKPQPDTLRQASLQVATLRGPISVAFDNTPDRFVLRTTLPANTNGVVYLPRKKTKSQVLQNGKSVKAAVEGNFWKITSVGAGTHEWEVR | 4.730% | 0.17 | 2.411% | 3.044%
